Measured values from publication doi:10.1101/2022.08.08.503162.

Target: His6-tagged luminal domain (ectodomain) of human SR-B1, amino acids 33-444 (human) (UniProt Q8WTV0)
Experiment: MST

How did the Kd turn out when “full-length APOA1-Milano expressed in 293F cells (protein A-APOA1-Milano construct) (from UniProt P02647 19-267) (natural protein)” was run?
The Kd was 2060 nM.
